Measured values published in publication PMC11331516.

How the values were obtained:
Bovine κ-casein (bovine) [1] = experiment: PFG NMR diffusion; κ-casein 0.1 to 10% (w/v) in 100% D2O, pH 7.0, 298 K; STE and MODSTE pulse sequences, td 50-800 ms; fresh samples; below the threshold of gel formation
Bovine κ-casein (bovine) [2] = experiment: PFG NMR diffusion; κ-casein 20% (w/v) in 100% D2O, 298 K; MODSTE pulse sequence, td 50-800 ms; gel-like network
[3] = biological target: Bovine κ-casein labelled with EDANS-C2-maleimide (donor) or DABCYL-C2-maleimide (acceptor) (bovine); experiment: FRET or BRET; as the FRET titration but with 5 mM sodium phosphate buffer added; data not shown
[4] = biological target: Bovine κ-casein labelled with EDANS-C2-maleimide (donor) or DABCYL-C2-maleimide (acceptor) (bovine); experiment: FRET or BRET; time-resolved FRET titration; donor (EDANS) κ-casein constant at 0.01% (5 μM), acceptor (DABCYL) κ-casein 0.01-0.38% (5-200 μM); in H2O, 293 K; indefinite isodesmic association, adding a monomer to an associate

How did the fraction of molecules within the associate, pmin(0) (0.5% solution) (Bovine κ-casein (bovine) [1]) turn out when Bovine κ-casein (natural protein) was run?
The fraction of molecules within the associate, pmin(0) (0.5% solution) was 0.23.

What about the lifetime of molecules within the associate (0.5% solution) (Bovine κ-casein (bovine) [1]) of the same substance?
The lifetime of molecules within the associate (0.5% solution) was 0.53 s.

What about the stoichiometry N (Bovine κ-casein (bovine) [1]) of the same substance?
Its stoichiometry N is under 31 molecules.

What about the lifetime of molecules within the gel network (20% solution) (Bovine κ-casein (bovine) [2]) of the same substance?
Its lifetime of molecules within the gel network (20% solution) is 0.98 s.

And the percent of molecules in the gel network (20% solution) (Bovine κ-casein (bovine) [2])?
Its percent of molecules in the gel network (20% solution) is 34%.

For “Bovine κ-casein labelled with EDANS-C2-maleimide (donor) or DABCYL-C2-maleimide (acceptor) (natural protein)”, which fold decrease of the equilibrium association constant with 5 mM sodium phosphate buffer against the aqueous solution [3] is on record?
Its fold decrease of the equilibrium association constant with 5 mM sodium phosphate buffer against the aqueous solution is 3 fold.

And the Kd [4]?
Its Kd is 9.5 µM.
